The data set relates to T1, Nc1ncnc2c1ncn2[C@@H]1O[C@H](COP(=O)(O)OP(=O)(O)OP(=O)(O)O)[C@@H](O)[C@H]1O.
T1 construct: Purified Pgp extracted from Chinese Hamster Ovary B30 cells, reconstituted in giant liposomes
Kind of data set: Km of ATP from Rho123 transport rates in giant proteoliposomes; colorimetric ATPase assay. The class given is biochemical, Cricetulus griseus.

Chain of P-glycoprotein (Pgp, ABCB1) (Cricetulus griseus) (chain, as listed by the source): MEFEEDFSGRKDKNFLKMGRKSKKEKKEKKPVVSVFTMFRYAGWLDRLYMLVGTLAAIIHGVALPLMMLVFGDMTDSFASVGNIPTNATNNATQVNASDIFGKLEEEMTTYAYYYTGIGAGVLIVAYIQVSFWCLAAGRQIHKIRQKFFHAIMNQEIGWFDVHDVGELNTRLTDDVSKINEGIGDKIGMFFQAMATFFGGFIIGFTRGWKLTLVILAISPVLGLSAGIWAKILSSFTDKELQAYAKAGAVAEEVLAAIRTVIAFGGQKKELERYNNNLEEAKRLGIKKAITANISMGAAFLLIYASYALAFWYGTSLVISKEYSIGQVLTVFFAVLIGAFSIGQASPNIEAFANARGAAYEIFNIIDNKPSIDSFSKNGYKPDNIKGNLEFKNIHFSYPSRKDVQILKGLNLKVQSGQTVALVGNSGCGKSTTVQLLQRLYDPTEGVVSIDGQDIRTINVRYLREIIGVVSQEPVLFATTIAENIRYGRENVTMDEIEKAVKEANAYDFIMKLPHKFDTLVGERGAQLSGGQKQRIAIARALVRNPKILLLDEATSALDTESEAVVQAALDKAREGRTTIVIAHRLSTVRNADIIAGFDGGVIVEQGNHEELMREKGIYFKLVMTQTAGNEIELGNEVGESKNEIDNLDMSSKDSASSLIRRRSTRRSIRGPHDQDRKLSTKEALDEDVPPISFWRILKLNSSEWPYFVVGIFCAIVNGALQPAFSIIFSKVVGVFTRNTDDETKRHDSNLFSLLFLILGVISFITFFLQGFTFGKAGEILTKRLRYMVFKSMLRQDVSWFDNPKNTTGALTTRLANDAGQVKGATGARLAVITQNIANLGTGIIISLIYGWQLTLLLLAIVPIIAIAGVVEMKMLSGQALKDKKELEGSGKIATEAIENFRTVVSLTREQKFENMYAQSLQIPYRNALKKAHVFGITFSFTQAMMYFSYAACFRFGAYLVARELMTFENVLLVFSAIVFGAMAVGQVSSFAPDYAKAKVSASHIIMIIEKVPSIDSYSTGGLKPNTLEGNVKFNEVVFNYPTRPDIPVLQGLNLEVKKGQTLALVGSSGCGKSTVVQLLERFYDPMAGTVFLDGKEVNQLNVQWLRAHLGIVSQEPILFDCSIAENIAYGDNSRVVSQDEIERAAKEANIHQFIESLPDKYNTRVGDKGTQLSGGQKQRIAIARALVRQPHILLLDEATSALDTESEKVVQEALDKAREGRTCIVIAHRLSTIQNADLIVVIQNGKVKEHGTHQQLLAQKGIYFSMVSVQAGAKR

Turning to “P-glycoprotein (Pgp, ABCB1) (Cricetulus griseus)”, the Michaelis constant (Km) is 420 ± 750 µM.

In general, Km refers to the concentration of substrate that gives half-maximal velocity.

Source of the values: article PMC6005519, “Reconstitution and functional studies of hamster P-glycoprotein in giant liposomes” (PLoS ONE, 2018).
